Experimental data taken from patent publication US20180319847A1.

What was measured:
EphB2-Fc [1] = experiment: SPR, EphB2-Fc immobilised on CM5, 100 nM analyte
EphB2-Fc [2] = experiment: SPR competition on immobilised EphB2-Fc; competitor ephrinB2-Fc (246 nM), 0-1020 nM GST-Azu 88-113
EphB2-Fc [3] = experiment: SPR competition on immobilised EphB2-Fc; competitor ephrinB2-Fc (246 nM) preincubated with 0-1020 nM GST-Azu 88-113

Chain of EphB2-Fc (P54763 19-543): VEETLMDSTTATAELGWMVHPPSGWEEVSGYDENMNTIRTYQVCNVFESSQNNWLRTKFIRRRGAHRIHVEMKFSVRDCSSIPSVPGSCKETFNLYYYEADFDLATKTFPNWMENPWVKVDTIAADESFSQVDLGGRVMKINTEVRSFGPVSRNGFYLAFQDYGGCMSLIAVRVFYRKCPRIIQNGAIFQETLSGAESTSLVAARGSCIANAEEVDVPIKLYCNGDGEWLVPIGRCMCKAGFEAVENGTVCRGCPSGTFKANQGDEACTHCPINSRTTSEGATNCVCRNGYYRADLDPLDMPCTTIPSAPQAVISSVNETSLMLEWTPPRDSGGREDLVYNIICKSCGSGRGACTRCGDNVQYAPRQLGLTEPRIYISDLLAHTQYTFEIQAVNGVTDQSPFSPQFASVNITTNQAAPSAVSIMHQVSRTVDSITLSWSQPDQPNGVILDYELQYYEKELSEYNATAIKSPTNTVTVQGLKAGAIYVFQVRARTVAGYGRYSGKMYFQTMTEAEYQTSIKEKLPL
Chain of GST-Azu 88-113 (chain): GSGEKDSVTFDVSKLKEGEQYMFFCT
Chain of GST-Azu 36-89 (B3EWN9 36-89): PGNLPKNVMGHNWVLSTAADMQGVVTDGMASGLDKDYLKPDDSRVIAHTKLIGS

Substance	Req in RU (EphB2-Fc [1])	level at which the inhibition levels off (EphB2-Fc [2])	reduction of total protein binding to the surface (EphB2-Fc [3])
GST-Azu 36-89 (from UniProt B3EWN9 36-89)	57 RU		
GST-Azu 88-113		40 to 50%	< 60%
